Experimental data reported in US20040091468, “Novel transcriptional mediators of blood vessel development and endothelial differentiation” (published 2004).

How the values were obtained:
cELF-1 [1] = target: T1, cELF-1 (Gallus gallus); experiment: EMSA; binds well; room temperature; settings: tags: none (TNT reticulocyte lysate); label: 32P
T1 chain: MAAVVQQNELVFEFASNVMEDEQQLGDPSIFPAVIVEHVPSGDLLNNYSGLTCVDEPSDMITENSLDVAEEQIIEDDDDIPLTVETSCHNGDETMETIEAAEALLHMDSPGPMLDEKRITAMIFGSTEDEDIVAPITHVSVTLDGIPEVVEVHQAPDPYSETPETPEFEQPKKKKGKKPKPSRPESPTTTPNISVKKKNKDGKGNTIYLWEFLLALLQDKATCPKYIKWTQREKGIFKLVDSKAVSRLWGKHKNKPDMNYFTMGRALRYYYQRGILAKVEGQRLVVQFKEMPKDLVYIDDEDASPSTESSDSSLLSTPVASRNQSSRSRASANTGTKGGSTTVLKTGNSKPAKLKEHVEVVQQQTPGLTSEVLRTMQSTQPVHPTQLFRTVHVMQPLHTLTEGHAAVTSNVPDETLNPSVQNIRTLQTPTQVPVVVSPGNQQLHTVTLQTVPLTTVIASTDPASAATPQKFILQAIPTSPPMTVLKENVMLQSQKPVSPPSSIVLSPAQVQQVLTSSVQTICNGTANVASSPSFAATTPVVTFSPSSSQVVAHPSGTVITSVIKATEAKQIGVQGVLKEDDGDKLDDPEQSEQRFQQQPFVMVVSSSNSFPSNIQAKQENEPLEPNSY
Procedure: (§1) The ability of cELF-1 to bind to conserved Ets sites in the Tie1 promoter was examined. There are two Ets site doublets, P1 and P2 that are highly conserved in this promoter. The ability of cELF-1 to bind to these Ets sites was tested. As is shown in FIG. 8C, cELF-1 binds well to both of these Ets sites. […] When both of the Ets site were mutated (Mut 1,2) the oligonucleotides were unable to compete for binding. When the first Ets site was mutated, Mut 1, it competed only weakly with binding of cELF-1 to the Tie1 P2 probe.
(§2) Briefly, 20-μL samples containing 2 μL of in vitro-translated products or cell extracts were incubated with a solution containing ³²P-labeleddouble-stranded probes (30 000 cpm). Samples were incubated in the presence or absence of increasing amounts of cold competitor (5 or 50 ng) for 15 to 20 minutes at room temperature and run on a 4% polyacrylamide gel (acrylamide-bisacrylamide, 29:1) containing a buffer of 0.25×TBE (22.5 mmol/L Tris borate and 0.5 mmol/L EDTA).

cELF-1 [2] = target: T1, cELF-1; experiment: EMSA; anti-ELF-1 antibody interferes and supershifts; room temperature; settings: tags: none (TNT reticulocyte lysate); label: 32P
Procedure: The ability of in vitro translated human ELF-1 and cELF-1 to bind to the same Tie2 Ets sites was also examined. As is shown in FIG. 8A, both human and chicken ELF-1 form similar DNA-protein complexes with the Tie2 Ets sites (lane 2 and 3). The ability of an ELF-1 specific antibody to interfere with the formation of these complexes was also tested. This antibody was able to interfere with complex formation of both human and chicken ELF-1. […] Because several Ets factors may potentially bind to the Tie2 Ets site in vivo in the developing chicken we performed gel shift assays with the Tie2 Ets probe and cell extracts from the chicken CAM. As is shown in FIG. 8B, lane 3, a similar size complex is formed compared to the in vitro translated cELF-1.
as §2

cELF-1 [3] = target: T1, cELF-1; experiment: EMSA; binds well; wild type cold oligo competes; settings: tags: none (TNT reticulocyte lysate); label: 32P
Procedure: as §1, §2

cELF-1 [4] = target: T1, cELF-1; experiment: competition; 5 or 50 ng cold competitor vs Tie1 P2 probe; unable to compete; settings: tags: none (TNT reticulocyte lysate)
Procedure: as §1, §2

cELF-1 [5] = target: T1, cELF-1; experiment: competition; 5 or 50 ng cold competitor vs Tie1 P2 probe; competes as well as wild type; settings: tags: none (TNT reticulocyte lysate)
Procedure: as §1, §2

B1: Tie1 P1 (dsDNA)
DNA 1: ACTGGCTTCCTCCCTTTCCTGTCTC
DNA 2: GAGACAGGAAAGGGAGGAAGCCAGT
binding result (cELF-1 [1]): binds

B2: Tie2 promoter Ets oligonucleotide (dsDNA)
DNA 1: TGCAAAGGAAACAGGAAAAAGGAACTTAAC
DNA 2: GTTAAGTTCCTTTTTCCTGTTTCCTTTGCA
binding result (cELF-1 [2]): binds

B3: Tie1 P2 (dsDNA)
DNA 1: CCATCATTTCCTCTTCCTCCCCAG
DNA 2: CTGGGGAGGAAGAGGAAATGATGG
binding result (cELF-1 [3]): binds

B4: Tie1 P2 Mut1,2 (dsDNA)
DNA 1: CCATCATTTAATCTTAATCCCCAG
DNA 2: CTGGGGATTAAGATTAAATGATGG
binding result (cELF-1 [4]): no binding

B5: Tie1 P2 Mut2 (dsDNA)
DNA 1: CCATCATTTCCTCTTAATCCCCAG
DNA 2: CTGGGGATTAAGAGGAAATGATGG
binding result (cELF-1 [5]): binds
